Laboratory results published in publication PMC3792479 (Genes & Development, 2013).
Changes are numbered by the printed parent chain. In names and notes the source's numbering stands. Where no end group is shown, it is not given here. [ ]: non-standard residue; d: D form. SeMet = C[Se]CC[C@H](N)C(=O)O

Columns and labels:
[1] = target: T1, CED-4 apoptosome (full-length wild-type CED-4) (C. elegans, UniProt P30429 1-549); test: SEC
T1 sequence (looked up): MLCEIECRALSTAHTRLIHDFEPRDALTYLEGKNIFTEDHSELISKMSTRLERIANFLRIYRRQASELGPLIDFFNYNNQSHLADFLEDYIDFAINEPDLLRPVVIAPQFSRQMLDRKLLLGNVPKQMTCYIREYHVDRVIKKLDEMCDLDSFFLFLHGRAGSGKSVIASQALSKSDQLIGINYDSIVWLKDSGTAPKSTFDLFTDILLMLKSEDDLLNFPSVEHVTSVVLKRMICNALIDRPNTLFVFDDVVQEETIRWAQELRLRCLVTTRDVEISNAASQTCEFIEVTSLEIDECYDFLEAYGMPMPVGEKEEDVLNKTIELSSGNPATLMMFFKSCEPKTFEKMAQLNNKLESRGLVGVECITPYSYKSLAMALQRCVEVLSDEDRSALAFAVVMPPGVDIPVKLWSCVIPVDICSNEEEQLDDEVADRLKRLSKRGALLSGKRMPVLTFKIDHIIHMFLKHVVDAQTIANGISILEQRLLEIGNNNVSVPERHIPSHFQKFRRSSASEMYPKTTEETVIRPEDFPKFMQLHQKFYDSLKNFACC

[2] = target: the molecule itself; test: crystal structure
[3] = target: T1, CED-4 apoptosome (full-length wild-type …); test: crystal structure

B1: two-chain CED-3 (residues 198–374, 389–503, and C358A) (domain or fragment, C. elegans)
chain 1: NRSFSKASGPTQYIFHEEDMNFVDAPTISRVFDEKTMYRNFSSPRGMCLIINNEHFEQMPTRNGTKADKDNLTNLFRCMGYTVICKDNLTGRGMLLTIRDFAKHESHGDSAILVILSHGEENVIIGVDDIPISTHEIYDLLNAANAPRLANKPKIVFVQAARGERRDNGFPVLDSVD
chain 2: GPLFNFLGCVRPQVQQVWRKKPSQADILIAYATTAQYVSWRNSARGSWFIQAVCEVFSTHAKDMDVVELLTEVNKKVACGFQTSQGSNILKQMPEMTSRLLKKFYFWPEARNSAV
binding result [1]: binds

B2: two-chain caspase domain of CED-3 (residues 198–374, 389–503, and C358S) (domain or fragment, C. elegans)
chain 1: B1 chain 1 with A161S
chain 2: B1 chain 2
stoichiometry N [2]: 2

B3: two-chain CED-3 with partial deletion of the L2 loop (residues 365–374) (domain or fragment, C. elegans)
chain 1: NRSFSKASGPTQYIFHEEDMNFVDAPTISRVFDEKTMYRNFSSPRGMCLIINNEHFEQMPTRNGTKADKDNLTNLFRCMGYTVICKDNLTGRGMLLTIRDFAKHESHGDSAILVILSHGEENVIIGVDDIPISTHEIYDLLNAANAPRLANKPKIVFVQAARGERRD
chain 2: B1 chain 2
binding result [1]: binds

B4: CED-3 (residues 198–503 and C358S) (domain or fragment, C. elegans, UniProt P42573 198-503, looked up)
chain: NRSFSKASGPTQYIFHEEDMNFVDAPTISRVFDEKTMYRNFSSPRGMCLIINNEHFEQMPTRNGTKADKDNLTNLFRCMGYTVICKDNLTGRGMLLTIRDFAKHESHGDSAILVILSHGEENVIIGVDDIPISTHEIYDLLNAANAPRLANKPKIVFVQASRGERRDNGFPVLDSVDGVPAFLRRGWDNRDGPLFNFLGCVRPQVQQVWRKKPSQADILIAYATTAQYVSWRNSARGSWFIQAVCEVFSTHAKDMDVVELLTEVNKKVACGFQTSQGSNILKQMPEMTSRLLKKFYFWPEARNSAV
binding result [1]: binds

GPLFNFLGCVRPQVQQVWRKK (peptide, UniProt P42573 389-409, looked up) [CED-3 L2′ loop fragment (residues 389–409)]
stoichiometry N [3]: 8 L2′ loop fragments per CED-4 apoptosome

GP[SeMet]FNF[SeMet]GCVRPQVQQVWRKK (peptide, UniProt P42573 389-409, looked up) [CED-3 L2′ loop fragment (residues 389–409) with Leu391 and Leu395 replaced by selenomethionine]
binding result [3]: binds

GPLFNF[SeMet]GCVRPQVQQVWRKK (peptide, UniProt P42573 389-409, looked up) [CED-3 L2′ loop fragment (residues 389–409) with Leu395 replaced by selenomethionine]
binding result [3]: binds

GP[SeMet]FNFLGCVRPQVQQVWRKK (peptide, UniProt P42573 389-409, looked up) [CED-3 L2′ loop fragment (residues 389–409) with Leu391 replaced by selenomethionine]
binding result [3]: binds
